Test results as given in patent US20160002322A1 (INDUSTRY ACADEMIC COOPERATION FOUNDATION HALLYM UNIVERSITY, published 2016).
No end group written: not given here.

Legend:
[1] = target: mouse TM4SF5 peptide (mTM4SF5) (mouse); assay: SPR, Biacore T100, 25 C; biotinylated peptide captured on streptavidin-coated CM4 chip, antibody injected at 2-32 nM
Protocol: (§1) Affinity of anti-hTM4SF5 monoclonal antibody binding to human TM4SF5 peptide (hTM4SF5) and mouse TM4SF5 peptide (mTM4SF5) was measured using Biacore T100 (Biacore) at 25° C. Biotinylated peptides were captured on individual flow cell surface of a CM4 sensor chip coated with streptoavidin. Biotin served as a negative control. Anti-TM4SF5 monoclonal antibody at concentrations ranging from 2 to 32 nM was injected at a flow rate of […]. Data were evaluated using Biacore Bia evaluation software (version 3.0).

[2] = target: T1, hTM4SF5 peptide (138-NRTLWDRCEAPPRV-151) (human, also: biotinylated for SPR capture (position not given here)); assay: SPR (Biacore T100, 25 C), biotinylated hTM4SF5 peptide captured on a streptavidin-coated CM4 chip, antibody injected at 2 to 32 nM
T1 construct: also called human TM4SF5 peptide
T1 peptide: NRTLWDRCEAPPRV
Protocol: as §1

[3] = target: mouse TM4SF5 peptide (mTM4SF5) (mouse); assay: SPR (Biacore T100, 25 C), biotinylated mTM4SF5 peptide captured on a streptavidin-coated CM4 chip, antibody injected at 2 to 32 nM
Protocol: as §1

[4] = target: T1, hTM4SF5 peptide (138-NRTLWDRCEAPPRV-151); assay: SPR, Biacore T100, 25 C; biotinylated peptide captured on streptavidin-coated CM4 chip, antibody injected at 2-32 nM; human TM4SF5 (not mouse); peptide on the chip per methods
Protocol: as §1

B1: anti-TM4SF5 monoclonal antibody 2D4-18 (antibody, V domains shown)
VH: GDLVKPGGSLKLSCAASGFTFSSYGMSWVRQTPDKRLEWVATISSGGGYTYYPDSVKGRFTISRDNAKNTLYLQMRSLKSEDTAMYYCARHEGFTTYYFDYWGQGTTLTVSS
VL: LSLPVSLGDQASISCRSSQSILHSSGNTYLEWYLQKPGQSPKLLIYKVSNRFSGVPDRFSGSGSGTDFTLKISRVEAEDLGVYYCFQGSHVPFTFGSGTKLEIKR
notes: DyLight 750-labelled in the biodistribution experiment; also called TM4SF5-targeted mAb (2D4-18); anti-hTM4SF5 monoclonal antibody
Binder B1 has a Kd [1] of roughly 2 nM, a Kd [2] of 2.74 nM and a Kd [3] of 1.87 nM. It also gave a Kd [4] of roughly 2 nM.
